Test results reported in US20230002496A1 (STAIDSON BEIJING BIOPHARMACEUTICALS, published 2023).
Substitutions are numbered along the chain they refer to. Where two headings read alike, the source gives them in different places.

T1: human GM-CSFRα, full length on cells (human, UniProt P15509 23-400)
T1 sequence: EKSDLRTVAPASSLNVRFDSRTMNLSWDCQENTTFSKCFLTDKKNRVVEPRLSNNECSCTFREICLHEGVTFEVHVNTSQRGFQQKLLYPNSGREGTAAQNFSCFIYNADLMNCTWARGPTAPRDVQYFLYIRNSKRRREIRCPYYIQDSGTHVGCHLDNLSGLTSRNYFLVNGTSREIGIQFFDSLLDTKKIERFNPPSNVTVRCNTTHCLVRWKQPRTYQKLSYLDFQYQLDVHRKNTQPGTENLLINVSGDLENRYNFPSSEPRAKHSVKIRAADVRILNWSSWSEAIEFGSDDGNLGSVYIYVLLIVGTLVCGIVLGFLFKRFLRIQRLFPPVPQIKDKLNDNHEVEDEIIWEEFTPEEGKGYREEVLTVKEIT

T2: cynomolgus monkey GM-CSFRα on granulocytes (cynomolgus monkey, UniProt A0A2K5UC70 23-393)
T2 sequence: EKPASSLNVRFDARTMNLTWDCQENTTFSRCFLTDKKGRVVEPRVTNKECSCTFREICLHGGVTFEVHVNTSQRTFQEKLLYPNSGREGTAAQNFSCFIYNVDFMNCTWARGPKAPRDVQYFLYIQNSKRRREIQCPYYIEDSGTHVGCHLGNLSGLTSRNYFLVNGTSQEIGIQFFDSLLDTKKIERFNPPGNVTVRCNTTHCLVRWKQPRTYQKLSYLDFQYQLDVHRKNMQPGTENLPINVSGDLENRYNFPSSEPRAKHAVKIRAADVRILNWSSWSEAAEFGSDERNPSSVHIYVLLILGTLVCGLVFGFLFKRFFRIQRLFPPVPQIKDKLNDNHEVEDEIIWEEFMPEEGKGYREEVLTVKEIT

T3: human GM-CSFRα-6His (human, UniProt P15509 23-320)
T3 construct: pTT5-GMRa-6his (ECD), made in 293F cells; also called GMRah; GMRa-6his(ECD)
T3 sequence: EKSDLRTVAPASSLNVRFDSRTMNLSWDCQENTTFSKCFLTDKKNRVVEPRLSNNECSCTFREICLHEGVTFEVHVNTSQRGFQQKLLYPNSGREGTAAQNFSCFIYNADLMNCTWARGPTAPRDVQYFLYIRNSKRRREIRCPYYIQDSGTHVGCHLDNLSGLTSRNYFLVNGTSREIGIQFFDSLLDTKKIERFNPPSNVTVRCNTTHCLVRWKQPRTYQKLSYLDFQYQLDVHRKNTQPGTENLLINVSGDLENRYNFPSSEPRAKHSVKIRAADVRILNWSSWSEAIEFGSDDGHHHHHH

B1: E35-IgG4 (antibody, V domains shown)
VH: QMQLVQSGAEVKKPGASVKVSCKVSGYTLTELSIHWVRQAPGKGLEWMGGFDPEDGETIYAQKFQGRVTMTGDTSTDTAYLELSSLRSEDTALYYCATGRYTSLATTYGFDYWGQGTLVTVSS
VL: EIVMTQSPATLSLSPGERATLSCRASQSVSSYLAWYQQKPGQAPRLLIYGASSRATGIPDRFSGSGSGTDFTLTISRLEPEDFAVYYCQQYDNWPYTFGQGTKLEIK
notes: human IgG4, human kappa; also called E35-IG4
B2: E87-IgG4 (antibody, V domains shown)
VH: B1 VH with F64S, T102V, A105F, T106F, T107N
VL: B1 VL with D92N, Y96P
notes: human IgG4, human kappa
B3: T119-IgG4 (antibody, V domains shown)
VH: B1 VH with Y27H, I59N, F64S, T102C, L104T, A105D, T107C
VL: B1 VL with D92N, Y96P
notes: human IgG4, human kappa; parent antibody
B4: E87b-IgG4 (antibody, V domains shown)
VH: B1 VH with F64S, T102V, A105F, T106F, T107N
VL: B1 VL
notes: human IgG4, human kappa
B5: E108-IgG4 (antibody, V domains shown)
VH: B1 VH with Y27H, S103E, A105Y, T106Q, T107N
VL: B1 VL with D92N, Y96P

Columns and labels:
[1] = molecular target: T1, human GM-CSFRα, full length on cells; test: cell-based or functional assay
[2] = molecular target: T2, cynomolgus monkey GM-CSFRα on …; test: cell-based or functional assay
[3] = molecular target: T1, human GM-CSFRα, full length on cells; test: cell-based or functional assay; remark: listed apart in the source
[4] = molecular target: T1, human GM-CSFRα, full length on cells; test: cell-based or functional assay; remark: listed apart in the source
[5] = molecular target: T1, human GM-CSFRα, full length on cells; test: cell-based or functional assay; remark: listed apart in the source
[6] = molecular target: T1, human GM-CSFRα, full length on cells; test: cell-based or functional assay; remark: listed apart in the source
[7] = molecular target: T1, human GM-CSFRα, full length on cells; test: cell-based or functional assay; remark: listed apart in the source
[8] = molecular target: T1, human GM-CSFRα, full length on cells; test: cell-based or functional assay; remark: listed apart in the source
[9] = molecular target: T1, human GM-CSFRα, full length on cells; test: cell-based or functional assay; remark: listed apart in the source
human GM-CSFRα-6His [10] = molecular target: T3, human GM-CSFRα-6His; test: SPR, Biacore T200, antibody (IgG4) on CM5 chip, GMRah as analyte
Experimental: The affinities for GMRah at various concentrations were measured. […] The concentrations of 0.625 and 0 nM were repeated once. Using the SPR technology, the association and dissociation rates were measured, and binding affinity was determined.

human GM-CSFRα-6His [11] = molecular target: T3, human GM-CSFRα-6His; test: ELISA, antibodies as human IgG4, one bar for each protein; antibody concentration not shown
human GM-CSFRα-6His [12] = molecular target: T3, human GM-CSFRα-6His; test: competitive ELISA, title on the sheet 'Blocking GMRah binding to GM-CSF'; antibody (human IgG4) titrated; blocked ligand GM-CSF; x axis 'Log Ab concentration', no unit

Molecule	IC50, human granulocyte shape change [3]	IC50, human granulocyte survival [4]	IC50, CD11b expression on human peripheral blood cells [5]	IC50, TNFα secretion by PBMC (Human Macrophage/Microglia Panel) [6]	IC50, IL-1β secretion by PBMC [7]	IC50, TNFα secretion by PBMC (ELISA) [8]	Kd (human GM-CSFRα-6His [10])	koff (human GM-CSFRα-6His [10])	kon (human GM-CSFRα-6His [10])	also measured
Mab-IgG4 (Mavrilimumab) (antibody)	–	–	–	–	–	–	–	–	–	IC50, CD11b expression on human peripheral blood cells [1]: 0.181 µg/mL; IC50, IL-1β secretion by PBMC [1]: 0.0126 µg/mL; IC50, TNFα secretion by PBMC (ELISA) [1]: 1.74 µg/mL; IC50, TNFα secretion by PBMC (Human Macrophage/Microglia Panel) [1]: 3.09 µg/mL
B1	0.00205 µg/mL	0.0042 µg/mL	0.111 µg/mL	0.278 µg/mL	0.00353 µg/mL	0.329 µg/mL	8.9 pM	4.78e-05 s⁻¹	5.37e+06 M⁻¹ s⁻¹	IC50, cynomolgus monkey granulocyte shape change [2]: 0.00253 µg/mL; IC50, TF-1 cell proliferation [9]: 0.0474 µg/mL
B2	–	–	–	–	–	–	–	–	–	binding result (human GM-CSFRα-6His [11]): binds
B3	–	–	–	–	–	–	–	–	–	binding result (human GM-CSFRα-6His [12]): binds
B4	0.00151 µg/mL	0.00253 µg/mL	0.144 µg/mL	0.0666 µg/mL	0.0133 µg/mL	0.0935 µg/mL	6.75 pM	2.42e-05 s⁻¹	3.58e+06 M⁻¹ s⁻¹	–
B5	0.00207 µg/mL	0.00552 µg/mL	–	–	–	–	–	–	–	–
